Results: patent publication US20260306676A1, “FLUORESCEIN-LABELED NERVE TARGETING PEPTIDE FORMULATIONS AND RELATED METHODS” (ALUME BIOSCIENCES, INC., priority 2023, published 2026)
≈ marks a conversion by molar mass, not a printed value.

Legend:
[1] = Influence of storage temperature on stability of ALM-488 solution (HPLC); assay type: physicochemical; conditions: 50 mg/mL in sterile water
Description: To evaluate whether the ALM-488, HCl salt can be supplied in the form of a concentrated frozen solution, 50 mg/mL solutions of the HCl salt were prepared in water and evaluated for storage stability at different temperatures. The solutions having pH of 1.87 were prepared in sterile water for injection, and these solutions were stored at different storage temperatures (−20° C., 5° C. and 40° C.) and were analyzed using the HPLC method of Table 3 at different time periods.

[2] = Drug product assay of lyophiles by HPLC; assay type: physicochemical; conditions: Pre-Lyo., starting peptide
Description: The content and purity of the ALM-488 peptide in the lyophilized product vials for Samples 10-1, 10-2 and 10-3 were evaluated using the HPLC method conditions of Table 3. […] The resulting solution was then transferred to a 200 mL volumetric flask. Each vial was rinsed well with water, and the rinses were transferred to the flask prior to volume make-up to 200 mL with water. The resulting solutions (~0.25 mg/mL of ALM488) were individually injected into the HPLC system and were analyzed as described above. The lyophilization process appeared to cause a small increase in the levels of some impurities.

[3] = Effect of organic amine compounds on solubility of ALM-488 (pH titration)
Description: To assess formulations that could be used to prepare ~50 mg/vial samples of ALM-488, and samples having an ALM-488 concentration of ~50 mg/mL, formulations having different organic amine compounds were studied. Each of these samples included (i) ALM-488 hydrochloride, (ii) a suitable base appropriate for a freeze-dried formulation (to adjust solution pH to optimal 7-8, as described in Examples 4 and 5), and (iii) at least one organic amine compound functioning as a pH-adjusting agent, bulking agent and/or a tonicity-adjusting agent. […] 55-60 mg/mL solutions of ALM-488 (pH 1.8-1.9) were titrated by gradual addition of 750 mM arginine, 1 M Tris, or 1 M meglumine.

[4] = Influence of pH on solubility and stability of ALM-488; assay type: physicochemical
Description: To understand pH-stability relationships, solutions of the ALM-488, HCl salt were prepared at ~1 mg/mL in 50 mM sodium citrate (pH 4-6) or sodium phosphate buffer (pH 7-8) solutions. […] All mixtures were filtered through a 0.45 μm PVDF syringe filter to remove undissolved solid, prior to storage. The filtered solution pH values were measured, and the samples were analyzed by HPLC using the HPLC method conditions of Table 3. Table lists the measured concentrations of ALM-488 (after filtration) as well as the measured solution pH values.
The solutions were then transferred into HPLC sample vials and were stored at 5° C., room temperature (22-23° C.) and 40° C.
Table 5 below summarizes the measured concentrations of intact ALM-488 peptide quantified relative to a standard solution, as well as the area % of the main peptide peaks as measured using the HPLC analysis method of Table 3. FIG. 9 is an overlay of representative chromatograms of the ALM-488 solutions at different solution pH values stored at 40° C. for 24 h. […] At higher pH values, the impurity at RRT ~0.96 appeared to grow during storage.

[5] = After 24 hours at 40° C., Citrate buffer 50 mM, pH 3.95
[6] = After 24 hours at 40° C., Citrate buffer 50 mM, pH 4.97
[7] = After 24 hours at 40° C., Citrate buffer 50 mM, pH 6.01
[8] = After 24 hours at 40° C., Phos. buffer 50 mM, pH 7.04
[9] = After 24 hours at 40° C., Phos. buffer 50 mM, pH 8.18
[10] = After 24 hours at 40° C., Water
[11] = Initial, Citrate buffer 50 mM, pH 3.95
[12] = Initial, Citrate buffer 50 mM, pH 4.97
[13] = Initial, Phos. buffer 50 mM, pH 7.04
[14] = Initial, Phos. buffer 50 mM, pH 8.18

SMILES: CC(C)[C@H](NC(=O)[C@H](Cc1ccc(O)cc1)NCCCCC(=O)[C@H](Cc1ccc(O)cc1)NC(=O)[C@@H]1CCCN1C(=O)[C@H](CCC(=O)O)NC(=O)[C@H](CCC(=O)O)NC(=O)[C@H](Cc1c[nH]c2ccccc12)NC(=O)[C@@H]1CCCN1C(=O)[C@@H](NC(=O)[C@H](CCC(N)=O)NC(=O)c1ccc2c(c1)C(=O)OC21c2ccc(O)cc2Oc2cc(O)ccc21)C(C)C)C(=O)N[C@H](C(=O)N[C@@H](CCCCN)C(=O)N[C@@H](CCCCN)C(=O)N[C@@H](CO)C(=O)N[C@@H](CO)C(=O)NCC(=O)NCC(N)=O)C(C)C [ALM-488, Bevonescein]
- ALM-488 main peak ([1]; 7 Days (5° C.)): 99.61 AREA %
- impurity RRT~0.73 ([1]; 7 Days (5° C.)): 0.07 AREA %
- impurity RRT~0.97 ([1]; 7 Days (5° C.)): 0.15 AREA %
- impurity RRT~1.06 ([1]; 7 Days (5° C.)): 0.14 AREA %
- impurity RRT~1.38 ([1]; 7 Days (5° C.)): 0.05 AREA %
- ALM-488 main peak ([1]; 7 Days (40° C.)): 97.96 AREA %
- impurity RRT~0.73 ([1]; 7 Days (40° C.)): 0.05 AREA %
- impurity RRT~0.93 ([1]; 7 Days (40° C.)): 0.09 AREA %
- impurity RRT~0.97 ([1]; 7 Days (40° C.)): 0.07 AREA %
- impurity RRT~1.06 ([1]; 7 Days (40° C.)): 1.43 AREA %
- impurity RRT~1.18 ([1]; 7 Days (40° C.)): 0.07 AREA %
- impurity RRT~1.38 ([1]; 7 Days (40° C.)): 0.27 AREA %
- ALM-488 main peak ([1]; 7 Days (−20° C.)): 99.56 AREA %
- impurity RRT~0.73 ([1]; 7 Days (−20° C.)): 0.07 AREA %
- impurity RRT~0.94 ([1]; 7 Days (−20° C.)): 0.03 AREA %
- impurity RRT~0.97 ([1]; 7 Days (−20° C.)): 0.16 AREA %
- impurity RRT~1.06 ([1]; 7 Days (−20° C.)): 0.15 AREA %
- impurity RRT~1.38 ([1]; 7 Days (−20° C.)): 0.04 AREA %
- ALM-488 main peak ([1]; Initial (RT)): 99.64 AREA %
- impurity RRT~0.94 ([1]; Initial (RT)): 0.09 AREA %
- impurity RRT~0.97 ([1]; Initial (RT)): 0.23 AREA %
- impurity RRT~1.06 ([1]; Initial (RT)): 0.09 AREA %
- ALM-488 main peak [2]: 99.69 Area %
- impurity RRT~0.97 [2]: 0.14 Area %
- impurity RRT~1.06 [2]: 0.11 Area %
- impurity RRT~1.38 [2]: 0.02 Area %
- solubility [3]: > 50000 µg/mL
- solubility ([4]; 50 mm citrate buffer, aqueous buffer, citrate buffers (pH 4-6), read-out: solubility): < 1000 µg/mL
- ALM488 concentration [4, 5]: 0.87 mg/mL
- HPLC purity, area % [4, 5]: 99.5%
- ALM488 concentration [4, 6]: 0.18 mg/mL
- HPLC purity, area % [4, 6]: 99.8%
- ALM488 concentration [4, 7]: 0.60 mg/mL
- HPLC purity, area % [4, 7]: 99.8%
- ALM488 concentration [4, 8]: 0.95 mg/mL
- HPLC purity, area % [4, 8]: 99.8%
- ALM488 concentration [4, 9]: 0.96 mg/mL
- HPLC purity, area % [4, 9]: 99.5%
- ALM488 concentration [4, 10]: 0.86 mg/mL
- HPLC purity, area % [4, 10]: 99.3%
- Measured solution pH ([4]; Citrate buffer 50 mM (pH 3.95)): 3.85
- solubility ([4]; Citrate buffer 50 mM (pH 3.95), read-out: Measured concentration in filtered solution): 830 µg/mL (≈ 351 µM)
- Measured solution pH ([4]; Citrate buffer 50 mM (pH 4.97)): 4.89
- solubility ([4]; Citrate buffer 50 mM (pH 4.97), read-out: Measured concentration in filtered solution): 180 µg/mL (≈ 76.1 µM)
- Measured solution pH ([4]; Citrate buffer 50 mM (pH 6.01)): 5.91
- solubility ([4]; Citrate buffer 50 mM (pH 6.01), read-out: Measured concentration in filtered solution): 610 µg/mL (≈ 258 µM)
- ALM488 concentration [4, 11]: 0.83 mg/mL
- HPLC purity, area % [4, 11]: 99.3%
- ALM488 concentration [4, 12]: 0.18 mg/mL
- HPLC purity, area % [4, 12]: 99.8%
- ALM488 concentration ([4]; Initial, Citrate buffer 50 mM, pH 6.01): 0.61 mg/mL
- ALM488 concentration [4, 13]: 0.94 mg/mL
- HPLC purity, area % [4, 13]: 99.7%
- ALM488 concentration [4, 14]: 0.95 mg/mL
- HPLC purity, area % [4, 14]: 99.7%
- ALM488 concentration ([4]; Initial, Water): 0.86 mg/mL
- HPLC purity, area % ([4]; Initial, Water): 99.8%
- Measured solution pH ([4]; Phos. buffer 50 mM (pH 7.04)): 6.94
- Measured solution pH ([4]; Phos. buffer 50 mM (pH 8.18)): 7.90
- Measured solution pH ([4]; Water): 3.46
- solubility ([4]; aqueous buffer, pH 5, citrate buffer, read-out: solubility near isoelectric pH): ~200 µg/mL (≈ 84.5 µM)
- solution stability ([4]; neutral pH values): adequate solution stability
- solubility ([4]; phosphate buffer 50 mm, Phos. buffer 50 mM (pH 7.04), read-out: Measured concentration in filtered solution): 940 µg/mL (≈ 397 µM)
- solubility ([4]; phosphate buffer 50 mm, Phos. buffer 50 mM (pH 8.18), read-out: Measured concentration in filtered solution): 950 µg/mL (≈ 401 µM)
- impurity at RRT ~1.4 ([4]; water (pH 3.46), 40° C. for 24 h): ~ 0.5 area %
- dissolution ([4]; water (pH 3.5) and phosphate buffer (pH 7-8), ~1 mg/mL): rapid and complete
- solubility ([4]; water, read-out: Measured concentration in filtered solution): 860 µg/mL (≈ 363 µM)
